# Results published in US7361133B2, “Methods of detection utilizing modified bacteriophage” (The Johns Hopkins University, priority 1997, dated 2008).
# Assays:
# [1] = target: T1, functional NMDA receptor channels (NR1 and NR2A) in HEK cells (Rattus norvegicus, UniProt P35439); assay: Phage-immunostain of HEK cells transiently expressing NR1 and NR2A; type: cell-based; conditions: 500 mM synthetic Mag-4.1 peptide
# T1 construct: expressed in transfected cells; host or cells: HEK cells, transient cotransfection
# Description: Phage-immunostain and Phage-FACS detection. The purified phage preparation was used to stain live cells. For immunostain the cells were washed three times with cold PBS. Phage binding were initiated by incubating with the cells with purified phage (10^10 tu per ml) on ice for 1 hour. After incubation, the unbound phage was removed by three washes of cold PBS supplemented with 1% bovine serum albumin (BSA). the fixation was carried out using 2% PFA overnight at 4C. The phage-binding was detected first by rabbit anti-phage antibody (1:10,000 dilution) followed by Fluorescein labeled anti-rabbit antibody (10 mg/ml, Vector Lab, Calif.). The fluorescence labeled cells were visualized under a fluorescence microscope. For Phage-FACS, the cell preparation procedures were identical except the cells were first dislodged from the dishes by incubating with PBS supplemented with 5 mM EDTA.
# [2] = target: T2, N-NR1 protein on cell surface of CHO cells (Rattus norvegicus, UniProt P35439); assay: Phage-immunostain of CHO cells expressing N-NR1 on cell surface; type: cell-based, Chinese hamster; conditions: 500 mM Mag-4.1 peptide
# T2 construct: N-NR1 (aa. 1-561); expressed in transfected cells
# Description: (§1) Immunostain and Fluorescence Activated Cell Sorting (FACS). The cells were grown on cover glass coated with 1% gelatin. Prior to addition of immunoglobulin, the cells were first washed three times with cold PBS and fixed with 2% paraformaldehyde (PFA) overnight. After washing the cells with cold PBS, the fixed cells were incubated with mAb8610 (1 mg /ml) at room temperature for 1 hour. The binding of mAb8610 was detected by incubating with anti-mouse conjugated with Texas-red (15 mg per ml) 1 hour at 4C. The immunostain was visualized by a Nikon Optiphot-2 fluorescent microscope and images were collected/digitalized using a computer. Cytometry of stained cells were analyzed on either FACScan or FACStar Plus Sorter (Becton-Dickinson, San Jose, Calif.). An Argon laser is used and tuned at 488 nm. The green fluorescence was recorded in the FLI emission channel.
# (§2) Phage-immunostain and Phage-FACS detection. The purified phage preparation was used to stain live cells. For immunostain the cells were washed three times with cold PBS. Phage binding were initiated by incubating with the cells with purified phage (10^10 tu per ml) on ice for 1 hour. […] The phage-binding was detected first by rabbit anti-phage antibody (1:10,000 dilution) followed by Fluorescein labeled anti-rabbit antibody (10 mg/ml, Vector Lab, Calif.). The fluorescence labeled cells were visualized under a fluorescence microscope. […]
# [3] = target: T3, N-NR1 (NH2-terminal domain of NR1, a.a 1-561) fusion protein (Rattus norvegicus, UniProt P35439); assay: Phage ELISA, binding to immobilized N-NR1 fusion protein; design: Inhibition of Mag-4.1 phage binding to N-NR1 by synthetic peptide: dose or concentration left out as unconfirmed
# T3 construct: N-NR1 (aa. 1-561); made in house
# Description: Phage selection. Six wells of a 96-well plate were precoated with mAb8610 ([…]) at 37° C. for one hour, blocked with 1% BSA for 30 minutes at 37° C. The N-NR1 fusion protein was first released by PIPLC digest after extensive washes of cells that express N-NR1. The released N-NR1 protein in the MEM medium was first treated by endo-F (1 unit per 10 mg protein) for overnight at 37° C. The treated preparation was affinity-purified by mAb8610 capture on the plates (1 mg of N-NR1 per well) at 22° C. for one hour. The phage binding was carried out by incubating with a total of 10^12 tu (transducing units) of a X9 library with a complexity of 1.2×10^10 recombinants. The binding buffer contains 10 mM Tris-HCl (pH 8.1), 100 mM NaCl and 1 mM EDTA for 3 hours at 4° C. Unbound material was removed with three washes of the binding buffer. The bound phagemid particles were recovered by adding […] of 0.1 M glycine-HCl (pH 2.2). After 10 minutes elution at room temperature, the elutes were immediately neutralized by mixing with equal volume of 0.1 M Trisbase (pH 9.2). The recovered phagemids were amplified in bacteria, and resultant phage preparations were used for the following round of purification.
# After five consecutive rounds of selection, the ELISA tests were performed using the supernatant of overnight cultures in the presence of 100 mM Hepes-NaOH (pH7.5) and 100 mM NaCl. The wells were coated with receptors according to the procedure described above. The bound phage particles were first detected by using rabbit anti-phage antibody (1:10,000) followed by alkaline phosphatase (AP)-conjugated secondary antibody (1:5,000, Sigma). After washing the wells with the binding buffer, […] of developing solution containing 1 mg/ml pNPP (Sigma, Mo.) in 10 mM diethanolamine-HCl (pH 9.7) was added. The alkaline phosphatase activity was monitored at the wavelength of 408 nm using a microtiter plate reader. Phage purification. The bacteria in culture medium containing phage was removed by centrifugation at 5,000×g for 30 minutes. […]
# [4] = target: T4, N-NR1 protein on CHO cells (Rattus norvegicus, UniProt P35439); assay: Phage-FACS of CHO cells expressing N-NR1; type: cell-based, Chinese hamster
# T4 construct: N-NR1 (aa. 1-561); expressed in transfected cells
# Description: as §1, §2
# [5] = target: N-NR1 fusion protein (putative amino-terminal domain of NR1, a.a 1-561, fused to the mAb8610 epitope tag and GPI anchor signal sequence) (UniProt P35439); assay: phage-overlay on nitrocellulose after denaturation-renaturation
molecule,measurement,setting,value
GGGLNDWFITYIGGG [Mag-4.1 peptide],Inhibition of phage stain signal on NR1/NR2A HEK cells by synthetic peptide,[1],completely inhibited
same,Inhibition of phage staining signal by synthetic peptide,[2],completely inhibited
same,Affinity of monovalent peptide,[3]; competition phage ELISA (FIG. 1C),low affinity
same,Inhibition of Mag-4.1 phage binding to N-NR1 by synthetic peptide,"[3]; synthetic peptide, phage ELISA",completely inhibited
same,"Inhibition of FACS phage stain signal by synthetic peptide, low N-NR1 CHO cells",[4]; 500 mM Mag-4.1 peptide (FIG. 5C),completely inhibited
same,"Effect of synthetic peptide on FACS staining signal, 1:1 mixture of low and high N-NR1 CHO cells",[4]; 500 mM Mag-4.1 peptide (FIG. 5E),the staining signal is sensitive to Mag-4.1 peptide
LEAWFLQYI [Mag-4.2],Phage binding to N-NR1,"[3]; phage ELISA, immobilized N-NR1",specifically association with N-NR1
"LNDWFITYI (peptide, not shown: large carriers) [Mag-4.1 phage]",least amount of N-NR1 protein per lane at which specific binding is detected,[5],20 ng
